Data from article PMC3317499, “Structural Insights into TIR Domain Specificity of the Bridging Adaptor Mal in TLR4 Signaling” (PLoS ONE, 2012).

What was measured:
[1] = target: T1, GST-MyD88-TIR (TIR domain of human MyD88, residues 148-296, GST fusion) (human, UniProt Q99836 148-296); assay: pull-down; GST fusion protein and Myc-Mal-TIR mixed with glutathione Sepharose 4B beads, 4°C, 3 hours; washed four times with 20 mM potassium phosphate pH 6.4, 50 mM KCl, 0.1 mM EDTA, 10 mM DTT, 0.5 mM PMSF, 0.5% Triton X-100; SDS-PAGE and anti-Myc immunoblot; conditions: both partners purified
T1 construct: Myeloid differentiation factor 88 (MyD88), human, TIR domain residues 148-296; pGEX-6P-1 is a bacterial vector; source: E. coli (pGEX-6P-1), purified (glutathione Sepharose 4B, desalting)
T1 sequence (Q99836 148-296): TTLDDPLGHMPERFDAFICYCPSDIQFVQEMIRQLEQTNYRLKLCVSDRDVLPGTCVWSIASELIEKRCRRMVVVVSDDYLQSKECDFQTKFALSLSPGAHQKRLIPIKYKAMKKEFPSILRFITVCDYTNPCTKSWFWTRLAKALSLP

[2] = target: T2, GST-TLR4-TIR (TIR domain of human TLR4, residues 670-839, GST fusion) (human, UniProt O00206 670-839); assay: as above; conditions: both partners purified
T2 construct: Toll-like receptor 4 (TLR4), human, TIR domain residues 670-839; pGEX-6P-1 is a bacterial vector; source: E. coli (pGEX-6P-1), purified (glutathione Sepharose 4B, desalting)
T2 sequence (looked up): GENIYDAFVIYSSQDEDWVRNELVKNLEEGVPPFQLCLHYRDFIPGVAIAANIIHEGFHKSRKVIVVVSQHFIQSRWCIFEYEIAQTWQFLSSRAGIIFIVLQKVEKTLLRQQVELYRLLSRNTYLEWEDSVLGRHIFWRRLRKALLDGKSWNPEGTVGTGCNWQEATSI

[3] = target: T3, GST-Mal-TIR (TIR domain of human Mal, residues 79-221, GST fusion) (human, UniProt P58753 79-221); assay: as above; conditions: both partners purified
T3 construct: MyD88 adaptor-like protein (Mal, TIRAP), human, UniProtKB P58753, TIR domain residues 79-221; pGEX-6P-1 is a bacterial vector; also called wild type Mal-TIR purified as a GST fusion protein; source: E. coli (pGEX-6P-1), purified (glutathione Sepharose 4B, desalting)

[4] = target: the molecule itself; assay: crystal structure; Mal-TIR 79-221, space group P4(3)2(1)2, one molecule per asymmetric unit; dimers by crystallographic packing; 100 mM CHES pH 9.5, 150-300 mM NaCl, 10-20% glycerol, 10 mM DTT; 2.4 Å

B1: Myc-Mal-TIR wild type (TIR domain of human MyD88 adaptor-like protein, residues 79-221, double-tagged with His6 and Myc) (domain or fragment, UniProt P58753 79-221, looked up)
chain: SSRWSKDYDVCVCHSEEDLVAAQDLVSYLEGSTASLRCFLQLRDATPGGAIVSELCQALSSSHCRVLLITPGFLQDPWCKYQMLQALTEAPGAEGCTIPLLSGLSRAAYPPELRFMYYVDGRGPDGGFRQVKEAVMRYLQTLS
notes: MyD88 adaptor-like protein (Mal, TIRAP), human, UniProtKB P58753, TIR domain residues 79-221; it replaced the S-tag, thioredoxin and the thrombin-cleavable segment of pET32a; also called wild-type Mal-TIR; TIRAP TIR domain; source: E. coli, purified (Ni-NTA, desalting)
binding result [1]: binds
binding result [2]: binds
binding result [3]: binds

B2: Myc-Mal-TIR D87A (domain or fragment, human, UniProt P58753 79-221, looked up)
chain: SSRWSKDYAVCVCHSEEDLVAAQDLVSYLEGSTASLRCFLQLRDATPGGAIVSELCQALSSSHCRVLLITPGFLQDPWCKYQMLQALTEAPGAEGCTIPLLSGLSRAAYPPELRFMYYVDGRGPDGGFRQVKEAVMRYLQTLS
notes: Mal (TIRAP), human, UniProtKB P58753, TIR domain residues 79-221; source: E. coli, purified (Ni-NTA, desalting)
binding result [3]: binds

B3: Myc-Mal-TIR D96A (domain or fragment, human, UniProt P58753 79-221, looked up)
chain: SSRWSKDYDVCVCHSEEALVAAQDLVSYLEGSTASLRCFLQLRDATPGGAIVSELCQALSSSHCRVLLITPGFLQDPWCKYQMLQALTEAPGAEGCTIPLLSGLSRAAYPPELRFMYYVDGRGPDGGFRQVKEAVMRYLQTLS
notes: as for B2
binding result [1]: binds
binding result [2]: binds

B4: Myc-Mal-TIR D96N (domain or fragment, human, UniProt P58753 79-221, looked up)
chain: SSRWSKDYDVCVCHSEENLVAAQDLVSYLEGSTASLRCFLQLRDATPGGAIVSELCQALSSSHCRVLLITPGFLQDPWCKYQMLQALTEAPGAEGCTIPLLSGLSRAAYPPELRFMYYVDGRGPDGGFRQVKEAVMRYLQTLS
notes: Mal (TIRAP), human, UniProtKB P58753, TIR domain residues 79-221, natural variant D96N; source: E. coli, purified (Ni-NTA, desalting)
binding result [1]: binds

B5: Myc-Mal-TIR E108A (domain or fragment, human, UniProt P58753 79-221, looked up)
chain: SSRWSKDYDVCVCHSEEDLVAAQDLVSYLAGSTASLRCFLQLRDATPGGAIVSELCQALSSSHCRVLLITPGFLQDPWCKYQMLQALTEAPGAEGCTIPLLSGLSRAAYPPELRFMYYVDGRGPDGGFRQVKEAVMRYLQTLS
notes: as for B2
binding result [1]: binds

B6: Myc-Mal-TIR F117A (domain or fragment, human, UniProt P58753 79-221, looked up)
chain: SSRWSKDYDVCVCHSEEDLVAAQDLVSYLEGSTASLRCALQLRDATPGGAIVSELCQALSSSHCRVLLITPGFLQDPWCKYQMLQALTEAPGAEGCTIPLLSGLSRAAYPPELRFMYYVDGRGPDGGFRQVKEAVMRYLQTLS
notes: as for B2
binding result [1]: binds

B7: Myc-Mal-TIR L165A (domain or fragment, human, UniProt P58753 79-221, looked up)
chain: SSRWSKDYDVCVCHSEEDLVAAQDLVSYLEGSTASLRCFLQLRDATPGGAIVSELCQALSSSHCRVLLITPGFLQDPWCKYQMLQAATEAPGAEGCTIPLLSGLSRAAYPPELRFMYYVDGRGPDGGFRQVKEAVMRYLQTLS
notes: as for B2
binding result [1]: binds

B8: Myc-Mal-TIR R192A (domain or fragment, human, UniProt P58753 79-221, looked up)
chain: SSRWSKDYDVCVCHSEEDLVAAQDLVSYLEGSTASLRCFLQLRDATPGGAIVSELCQALSSSHCRVLLITPGFLQDPWCKYQMLQALTEAPGAEGCTIPLLSGLSRAAYPPELAFMYYVDGRGPDGGFRQVKEAVMRYLQTLS
notes: as for B2
binding result [3]: binds

B9: Myc-Mal-TIR S180L (domain or fragment, human, UniProt P58753 79-221, looked up)
chain: SSRWSKDYDVCVCHSEEDLVAAQDLVSYLEGSTASLRCFLQLRDATPGGAIVSELCQALSSSHCRVLLITPGFLQDPWCKYQMLQALTEAPGAEGCTIPLLLGLSRAAYPPELRFMYYVDGRGPDGGFRQVKEAVMRYLQTLS
notes: Mal (TIRAP), human, UniProtKB P58753, TIR domain residues 79-221, natural variant S180L; also called Mal S180L; source: E. coli, purified (Ni-NTA, desalting)
binding result [1]: binds
binding result [2]: binds

B10: Mal-TIR (residues 79-221 of human Mal), crystallised form (domain or fragment, UniProt P58753 79-221, looked up)
chain: SSRWSKDYDVCVCHSEEDLVAAQDLVSYLEGSTASLRCFLQLRDATPGGAIVSELCQALSSSHCRVLLITPGFLQDPWCKYQMLQALTEAPGAEGCTIPLLSGLSRAAYPPELRFMYYVDGRGPDGGFRQVKEAVMRYLQTLS
notes: MyD88 adaptor-like protein (Mal, TIRAP), human, UniProtKB P58753, residues 79-221; The structure has disulfide bonds C89-C134 and C142-C174 and a DTT linking Cys91 and Cys157; A selenomethionine form was used for phasing; also called wild-type Mal-TIR; TIR domain of the human Mal molecule; source: E. coli BL21 (DE3) codon plus, purified (Ni-NTA, PreScission digestion, anion exchange)
binding result [4]: binds
